For this data set, the target named is rYbx1 (wild type) (Danio rerio (zebrafish)) (UniProt B5DE31). Description: EMSA. The conditions noted are these: RNA EMSA; binding buffer and temperature not given; extract lysis buffer 20 mM Tris pH 8.0, 100 mM NaCl, 0.1 mM EDTA, 1 mM 6-aminohexanoic acid, 1 mM PMSF, 25% …. A general note: In EMSA bound probe runs differently from free probe, usually more slowly.
rYbx1 (wild type) (Danio rerio (zebrafish)), sequence (B5DE31 whole entry): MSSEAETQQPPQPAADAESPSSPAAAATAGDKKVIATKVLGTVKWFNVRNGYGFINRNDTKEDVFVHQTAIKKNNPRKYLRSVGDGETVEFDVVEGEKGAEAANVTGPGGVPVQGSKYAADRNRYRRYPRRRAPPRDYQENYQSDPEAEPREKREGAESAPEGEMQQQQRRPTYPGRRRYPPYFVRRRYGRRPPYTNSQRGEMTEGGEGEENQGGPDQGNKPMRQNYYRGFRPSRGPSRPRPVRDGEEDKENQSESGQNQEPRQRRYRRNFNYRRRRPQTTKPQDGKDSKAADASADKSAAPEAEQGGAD
As to “GGGAGAACAAUUUUUCUUUUUUUAGGUGUGGAUUAAUGCAAAAUUAGGCUUCUUUUUAGAUGCAGAGAAUGUGCAUGUAGAUGCUGUUAAAGUAACUUUUUAUAAU [vg1.2 probe]”, the binding result is given as “no binding”.
To “GGGAGAAGUGGAUGCAGAUGAACAUGACUUAAUUUUUAAAUGCACAAUUUGUUUAUUACAAUUUUUCUUUUUUUAGGUGUGGAUUAAUGCAAAAUUAGGCUUCUUUU [vg1.1 probe]” belongs “no binding”.
To “GGGAGACCGGCCGCACAACCAUUCACGCAAAAGACAACACACGCGUCGUGGAUGAAGUAAUCCUCUUUGCAAAUAUGUAAAGCUGUAUAUUUCUAAUGUAAAUA [wnt8a.1 probe]” belongs “no binding”; to “GGGAGAGAUGCAGAGAAUGUGCAUGUAGAUGCUGUUAAAGUAACUUUUUAUAAUUCAUUGUAAUGUAAUAAUAAAAACUUUUACUAUGGGAUUCCUUUUUUUUC [vg1.3 probe]”, “no binding”; to “GGGAGAUAUUUUAUGAGAUUUUAAGAUAUAAUUUUCUGUAUAUUUCUGCAAGCAAAAUGUAAAUUGACGCUCUAUAUAAGACACAUGGGCUUUCUCGUUCCCAC [wnt8a.2 probe]”, “no binding”.
To “GGGAGAUGUCAAUUGAAUUCAUUGAAGUUCUAUUUUGAAGUUCAUUAUUUGCACUUUUUCGUUCUCGACAUAAGAUCACAGAUUUUGUUGCUCUCAAAAAAUGU [wnt8a.3 probe]” belongs “no binding”; to “GGGAGAUUGUAUUUUUUCAUGCACAGAUCACUUGACAGUAUGCAGUGUUUCACGAUGAGGUUUAAAUGUUGUGUUUUAUGGAACUUAUUUAAGGCAAAUAUUUU [wnt8a.4 probe]”, “no binding”.

These data come from publication PMC3771576.
